{"source": "patent US20250019737A1", "about": "(TECHNOLOGY INNOVATION MOMENTUM FUND ISRAEL LIMITED …, published 2025)", "binders": {"B1": {"name": "His6-MBP-ENTH, ENTH domain of yeast Ent1(1-152) (other, yeast (Saccharomyces cerevisiae), UniProt Q12518 1-152, looked up, not shown: small tags and cut ends; large carriers)", "chain": "MSKQFVRSAKNLVKGYSSTQVLVRNATSNDNHQVSKDSLIELAEKSYDSADFFEIMDMLDKRLNDKGKYWRHIAKALTVIDYLIRFGSENCVLWCRENLYIIKTLKEFRHEDDEGIDQGQIVRVKAKELTALLSDDERLNEERNMNIKGRNR", "notes": "range 1-152; also called yeast ENTH"}}, "target": "T1, Ubiquitin R42E, R72E, untagged free mono-Ub (Homo sapiens (Human), UniProt P0CG47 1-76)", "T1 construct": "also called Ub R42E, R72E", "assay": "SPR, immobilized His6-MBP-ENTH on Ni2+ chip, Ub mutant as analyte, single-site model", "data": [{"binder": "B1", "values": [{"measurement": "fold lower affinity than the wild-type complex", "value": "~2.6", "unit": "fold"}]}]}
